According to US20130164309A1 (RESEARCH FOUNDATION OF STATE UNIVERSITY OF NEW YORK, published 2013):

B3: TCblR 32-52, 64-233-mycHis (receptor, not shown: small tags and cut ends)
chain: EAAASPLSTPTSAQAAGPSSGSGLCVPLTWRCDRDLDCSDGSDEEECRIEPCTQKGQCPPPPGLPCPCTGVSDCSGGTDKKLRNCSRLACLAGELRCTLSDDCIPLTWRCDGHPDCPDSSDELGCGTNEILPEGDATTMGPPVTLESVTSLRNATTMGPPVTLESVPSVGNATSSSAGDQSGSPTAYGVIA
notes: Secreted, expressed in HEK293 cells, used as culture medium; also called p53-63del; N-terminal 11 residues (aa 53-63) of the first LDLR-A domain deleted
B4: TCblR 32-137, 166-233-mycHis (receptor, not shown: small tags and cut ends)
chain: EAAASPLSTPTSAQAAGPSSGSCPPTKFQCRTSGLCVPLTWRCDRDLDCSDGSDEEECRIEPCTQKGQCPPPPGLPCPCTGVSDCSGGTDKKLRNCSRLACLAGELGCGTNEILPEGDATTMGPPVTLESVTSLRNATTMGPPVTLESVPSVGNATSSSAGDQSGSPTAYGVIA
notes: Secreted, expressed in HEK293 cells, used as culture medium; also called second LDLR-A domain removed
B5: truncated TCblR 32-149 (receptor)
chain: not shown
notes: Secreted C-terminal deletion of the extracellular domain, expressed in HEK293 cells, used as culture medium; also called aa 150-233 deleted
B6: truncated TCblR 32-183 (receptor)
chain: not shown
notes: Secreted C-terminal deletion of the extracellular domain, expressed in HEK293 cells, used as culture medium; also called C-terminal 49 aa deleted (two N-glycosylation sites removed)
B9: recombinant extracellular domain of human TCblR (aa 32-233), untagged secreted form (receptor)
chain: EAAASPLSTPTSAQAAGPSSGSCPPTKFQCRTSGLCVPLTWRCDRDLDCSDGSDEEECRIEPCTQKGQCPPPPGLPCPCTGVSDCSGGTDKKLRNCSRLACLAGELRCTLSDDCIPLTWRCDGHPDCPDSSDELGCGTNEILPEGDATTMGPPVTLESVTSLRNATTMGPPVTLESVPSVGNATSSSAGDQSGSPTAYGVIA
notes: Expressed in HEK 293 cells and secreted into the culture medium; also called TCblR ECD; extracellular TCblR

Assays:
[1] = molecular target: T1, TCblR 32-94, 142-233-mycHis (human, UniProt Q9NPF0 32-233); experiment: sandwich ELISA, mAb as capture, TCblR construct in HEK293 medium; +++ OD 2-3, ++ OD 1-2, + OD 0.5-1, - OD <0.5
T1 construct: also called TCblR without the CUB domain; region between the two LDLR-A domains deleted

[2] = molecular target: T2, TCblR 32-233-mycHis (human, UniProt Q9NPF0 32-233); experiment: as above
T2 construct: Secreted, expressed in HEK293 cells, used as culture medium; also called extracellular TCblR in pcDNA3.1 (-) mycHisA
T2 sequence: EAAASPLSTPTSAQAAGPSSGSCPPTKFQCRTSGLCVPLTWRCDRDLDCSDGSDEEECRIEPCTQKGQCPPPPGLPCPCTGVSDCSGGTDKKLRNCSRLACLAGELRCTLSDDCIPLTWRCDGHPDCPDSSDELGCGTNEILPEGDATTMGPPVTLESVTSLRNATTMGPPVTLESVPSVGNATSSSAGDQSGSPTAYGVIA

[3] = molecular target: B3; experiment: as above
[4] = molecular target: B6; experiment: as above
[5] = molecular target: B9; experiment: as above
[6] = molecular target: B5; experiment: sandwich ELISA, mAb as capture
[7] = molecular target: B4; experiment: sandwich ELISA, mAb as capture
[8] = molecular target: B4; experiment: sandwich ELISA, mAb as capture, TCblR construct in HEK293 medium; +++ OD 2-3, ++ OD 1-2, + OD 0.5-1, - OD <0.5
[9] = molecular target: B6; experiment: sandwich ELISA, mAb as capture
[10] = molecular target: T3, TC-Cbl (recombinant human transcobalamin saturated with cobalamin) (human, UniProt P20062 19-427); experiment: radiolabelled TC-Cbl binding, WGA-agarose separation
T3 construct: also called holo-TC; holoTc
T3 sequence (looked up): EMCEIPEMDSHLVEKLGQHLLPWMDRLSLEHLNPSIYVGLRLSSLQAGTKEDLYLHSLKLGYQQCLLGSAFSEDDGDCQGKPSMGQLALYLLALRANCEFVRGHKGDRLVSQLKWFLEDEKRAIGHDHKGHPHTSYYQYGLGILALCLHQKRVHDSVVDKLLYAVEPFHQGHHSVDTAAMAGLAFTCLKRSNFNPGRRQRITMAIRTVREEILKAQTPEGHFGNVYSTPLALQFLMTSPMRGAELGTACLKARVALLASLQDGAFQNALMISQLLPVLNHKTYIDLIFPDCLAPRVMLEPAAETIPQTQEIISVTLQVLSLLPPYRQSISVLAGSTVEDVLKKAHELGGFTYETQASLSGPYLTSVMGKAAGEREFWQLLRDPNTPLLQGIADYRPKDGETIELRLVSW

[11] = molecular target: T3, TC-Cbl (recombinant human …); experiment: radiolabelled TC-Cbl binding to deletion constructs
[12] = molecular target: T3, TC-Cbl (recombinant human …); experiment: radiolabelled TC-Cbl binding, indirect competition with full-length secreted TCblR
[13] = molecular target: T3, TC-Cbl (recombinant human …); experiment: binding and internalization of TC-[57Co]Cbl by transfected HEK293 cells
[14] = molecular target: T3, TC-Cbl (recombinant human …); experiment: radiolabelled TC-Cbl binding to mutated secreted receptor

B1: mAb 1-25 (antibody, V domains shown)
VH: DVQLQESGPDLVKPSQSLSITCTVTGYSITSDYSWHWIRQFPGNKLEWMGYIHSSGITNYNPSLKSRISITRDTSKNQFFLHLSSMTNEDTATYYCTRPPVVTRYFDVWGAGTTVTVSS
VL: DIVMTQSPSSLTVTAGEKVTMSCKSSQGLLDSGNQKNYLTWYQQKPGQPPKLLIYWASTRKSGVPDRFTGSGSGTDFTLTISSVQAEDLAVYYCQNDYTYPLTFGAGTKLELK
notes: also called TCblRKB1-25
OD [1]: 0.5 to 1 od | OD [2]: 1 to 2 od | OD [3]: 2 to 3 od | OD [4]: 2 to 3 od | OD [5]: 1 to 2 od | OD [6]: < 0.5 od | OD [7]: < 0.5 od

B2: mAb 1-23 (antibody, V domains shown)
VH: DVQLQESGPGLVKPSQSLSLTCTVTGYSITSDYAWNWIRQFPGNKLEWMGYIAYTNRTFYTPSLESRISITRDTSKNQFFLQLNSVTTEDTGTYYCARNSGKTYGFTYWGQGTLVTVSA
VL: DIVMSQSPSSLVVSIGEKVTMSCKSSQRLLYSANQKNYLAWYQQKPGQSPKLLIYWASTRESGVPDRFTGSGSGTDFTLTISSVRAEDLALYYCQQFYNYPLTFGSGTKLEIK
OD [1]: 1 to 2 od | OD [2]: 1 to 2 od | OD [3]: 1 to 2 od | OD [5]: 1 to 2 od | OD [8]: 1 to 2 od | OD [9]: < 0.5 od | OD [6]: < 0.5 od

B3
binding result [10]: no binding

B4
binding result [11]: no binding

B5
binding result [12]: no binding

B6
binding result [12]: binds

B7: mAb 1-19 (antibody, V domains shown)
VH: DVQLQESGPGLVKPSQSLSLTCTVLGYSITSDYAWNWIRQFPGNKLEWMGYISFSGNIRYNPSLESRISITRDTSKSQFFLQLNSVTTEDRGTYYCARAGLGRVFYFDYWGQGTALTVSS
VL: DIVMSQSPSSLAVSVGEKVTMSCKSSQSLLYSSNQKNYLAWYQQKPGQSPQLLIFRASTRESGVPDRFTGSGSGTDFTLTISSVKPEDLAVYFCQQYYNYPFTFGSGTTLEIK
notes: also called TCblRKB 1-19; monoclonal antibody 1-19
OD [1]: 1 to 2 od | OD [2]: 2 to 3 od | OD [3]: 2 to 3 od | OD [5]: 1 to 2 od | OD [8]: 1 to 2 od | OD [9]: < 0.5 od | OD [6]: < 0.5 od

B8: TCblR with the cytoplasmic tail deleted, on HEK293 cells (receptor)
chain: EAAASPLSTPTSAQAAGPSSGSCPPTKFQCRTSGLCVPLTWRCDRDLDCSDGSDEEECRIEPCTQKGQCPPPPGLPCPCTGVSDCSGGTDKKLRNCSRLACLAGELRCTLSDDCIPLTWRCDGHPDCPDSSDELGCGTNEILPEGDATTMGPPVTLESVTSLRNATTMGPPVTLESVPSVGNATSSSAGDQSGSPTAYGVIAAAAVLSASLVTATLLLL
notes: Limits derived; also called TCblR without the cytoplasmic domain; membrane-anchored receptor
binding result [13]: binds

B9
binding result [10]: binds

B10: extracellular TCblR mycHis mutant pDE163, 164>LL (receptor, not shown: small tags and cut ends)
chain: EAAASPLSTPTSAQAAGPSSGSCPPTKFQCRTSGLCVPLTWRCDRDLDCSDGSDEEECRIEPCTQKGQCPPPPGLPCPCTGVSDCSGGTDKKLRNCSRLACLAGELRCTLSDDCIPLTWRCDGHPDCPDSSLLLGCGTNEILPEGDATTMGPPVTLESVTSLRNATTMGPPVTLESVPSVGNATSSSAGDQSGSPTAYGVIA
notes: Made on the extracellular TCblR cDNA in pcDNA3.1 (-) mycHisA, expressed in HEK293 cells; also called D163L, E164L
binding result [14]: no binding

B11: extracellular TCblR mycHis mutant pDE85, 86>LL (receptor, not shown: small tags and cut ends)
chain: EAAASPLSTPTSAQAAGPSSGSCPPTKFQCRTSGLCVPLTWRCDRDLDCSDGSLLEECRIEPCTQKGQCPPPPGLPCPCTGVSDCSGGTDKKLRNCSRLACLAGELRCTLSDDCIPLTWRCDGHPDCPDSSDELGCGTNEILPEGDATTMGPPVTLESVTSLRNATTMGPPVTLESVPSVGNATSSSAGDQSGSPTAYGVIA
notes: Made on the extracellular TCblR cDNA in pcDNA3.1 (-) mycHisA, expressed in HEK293 cells; also called D85L, E86L
binding result [14]: no binding
